One block for each binder: values may come before it.
Assays:
Assay in all cases: flow cytometry on cells
[1] = biological target: mouse TrkB expressed on REN cells (Mus musculus, UniProt P15209)
[2] = biological target: mouse TfR-1 expressed on REN cells (Mus musculus, UniProt Q62351)
[3] = biological target: mouse CD98hc expressed on REN cells (Mus musculus, UniProt P10852-2)

Chain of mouse TfR-1 expressed on REN cells (Q62351 whole entry): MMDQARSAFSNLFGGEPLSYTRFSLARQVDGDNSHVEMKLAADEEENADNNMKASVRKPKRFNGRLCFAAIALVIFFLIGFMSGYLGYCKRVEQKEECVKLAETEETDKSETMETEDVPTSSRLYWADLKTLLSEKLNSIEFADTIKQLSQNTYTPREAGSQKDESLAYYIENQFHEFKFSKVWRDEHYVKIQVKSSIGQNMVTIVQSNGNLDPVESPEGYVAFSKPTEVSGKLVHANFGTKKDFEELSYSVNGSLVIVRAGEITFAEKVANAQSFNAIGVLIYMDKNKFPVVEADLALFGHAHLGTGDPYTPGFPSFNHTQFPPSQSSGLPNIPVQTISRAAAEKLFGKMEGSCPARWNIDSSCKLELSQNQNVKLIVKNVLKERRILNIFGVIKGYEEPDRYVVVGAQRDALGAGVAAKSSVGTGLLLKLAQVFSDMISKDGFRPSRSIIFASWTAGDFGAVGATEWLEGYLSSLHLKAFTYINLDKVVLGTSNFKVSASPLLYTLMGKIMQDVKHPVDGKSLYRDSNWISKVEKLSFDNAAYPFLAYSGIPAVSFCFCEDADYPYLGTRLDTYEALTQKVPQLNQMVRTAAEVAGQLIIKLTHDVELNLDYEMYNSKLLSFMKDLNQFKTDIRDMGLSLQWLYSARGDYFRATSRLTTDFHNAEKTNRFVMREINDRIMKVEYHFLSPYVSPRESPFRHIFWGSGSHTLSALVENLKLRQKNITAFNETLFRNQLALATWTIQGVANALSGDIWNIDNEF
Chain of mouse TrkB expressed on REN cells (P15209 32-821): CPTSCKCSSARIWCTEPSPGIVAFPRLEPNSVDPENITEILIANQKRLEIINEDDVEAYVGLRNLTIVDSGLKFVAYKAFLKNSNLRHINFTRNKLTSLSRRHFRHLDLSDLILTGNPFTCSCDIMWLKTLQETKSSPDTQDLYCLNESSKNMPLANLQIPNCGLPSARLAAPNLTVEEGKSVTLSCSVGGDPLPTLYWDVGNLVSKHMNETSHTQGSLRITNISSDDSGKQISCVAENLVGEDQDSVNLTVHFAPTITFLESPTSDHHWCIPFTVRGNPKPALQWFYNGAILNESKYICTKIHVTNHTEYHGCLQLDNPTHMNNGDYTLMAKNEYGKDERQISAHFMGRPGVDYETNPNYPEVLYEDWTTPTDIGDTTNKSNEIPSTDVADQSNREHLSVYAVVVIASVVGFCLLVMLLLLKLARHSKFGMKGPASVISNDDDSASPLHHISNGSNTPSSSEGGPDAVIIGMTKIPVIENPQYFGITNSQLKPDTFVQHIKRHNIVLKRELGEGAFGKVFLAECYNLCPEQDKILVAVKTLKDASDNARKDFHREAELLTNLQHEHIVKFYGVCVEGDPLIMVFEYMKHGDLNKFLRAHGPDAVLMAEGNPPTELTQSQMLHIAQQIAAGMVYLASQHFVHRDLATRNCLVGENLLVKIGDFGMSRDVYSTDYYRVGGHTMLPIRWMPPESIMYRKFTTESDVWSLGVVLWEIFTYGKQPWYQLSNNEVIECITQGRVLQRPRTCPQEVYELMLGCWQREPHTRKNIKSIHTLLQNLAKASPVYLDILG

binding result [1]: binds
B1: 29D7 (TrkB-IgG) (antibody, V domains shown)
VH: EVQLVESGGGLVQPGGSLRLSCAASGYSFTAYFMNWVRQAPGKGLEWVARINPNNGDTFYTQKFKGRFTISRDNAKNSLYLQMNSLRAEDTAVYYCARRDYFGAMDYWGQGTLVTVSS
VL: DIQMTQSPSSLSASVGDRVTITCRASQTISNNLHWYQQKPGKAPKLLIKSASLAISGVPSRFSGSGSGTDFTLTISSLQPEDFATYYCQQSNSWPNTFGGGTKVEIK

EC50 [2]: 3.1 nM
B2: TfR-1 IgG (clone 8D3) (antibody, V domains shown)
VH: EVQLVESGGGLVQPGNSLTLSCVASGFTFSNYGMHWIRQAPKKGLEWIAMIYYDSSKMNYADTVKGRFTISRDNSKNTLYLEMNSLRSEDTAMYYCAVPTSHYVVDVWGQGVSVTVSS
VL: DIQMTQSPASLSASLEEIVTITCQASQDIGNWLAWYQQKPGKSPQLLIYGATSLADGVPSRFSGSRSGTQFSLKISRVQVEDIGIYYCLQAYNTPWTFGGGTKLELK

EC50 [3]: 1.9 nM
B3: CD98hc IgG (antibody, V domains shown)
VH: EVQLVESGGGLVQPGRSLKLSCAASGFTFSDYYMAWVRQAPKKGLEWVASISYEGSSIYYGDSVKGRVTISRDNAKSTLYLQMNSLRSEDTATYYCARRGYYGYKPFDYWGQGVMVTVSS
VL: DIQMTQSPASLSASVGETVTIECRASEDIYNGLAWYQQKPGKSPQLLIYNIDNLHTGVPSRFSGSGSGTQYSLKINSLQSEDVASYFCQQYYTYAYTFGAGTKLELK
